Source: article PMC12748864, “Potent neutralization by antibodies targeting the MPXV A28 protein” (Nature Communications, 2025)

Legend:
Settings in all cases: both partners purified
[1] = target: MPXV A28 (OPG153), residues 2-361 (Monkeypox virus, template GenBank …, UniProt A0A7H0DNC4); assay: ELISA
[2] = target: T1, VACV A26 (OPG153), residues 2-361 (Vaccinia virus strain IHDW, template …, UniProt P24758, strain); assay: ELISA
T1 construct: also called VACV homolog of A28

[3] = target: T2, VACV A26 head domain (amino acids 1-397), strain Western Reserve (Vaccinia virus (strain Western Reserve), UniProt P24758); assay: crystal structure
T2 construct: also called residues 1-397 of A26

Chain of MPXV A28 (OPG153), residues 2-361 (A0A7H0DNC4 whole entry, looked up, the tested form may be a part): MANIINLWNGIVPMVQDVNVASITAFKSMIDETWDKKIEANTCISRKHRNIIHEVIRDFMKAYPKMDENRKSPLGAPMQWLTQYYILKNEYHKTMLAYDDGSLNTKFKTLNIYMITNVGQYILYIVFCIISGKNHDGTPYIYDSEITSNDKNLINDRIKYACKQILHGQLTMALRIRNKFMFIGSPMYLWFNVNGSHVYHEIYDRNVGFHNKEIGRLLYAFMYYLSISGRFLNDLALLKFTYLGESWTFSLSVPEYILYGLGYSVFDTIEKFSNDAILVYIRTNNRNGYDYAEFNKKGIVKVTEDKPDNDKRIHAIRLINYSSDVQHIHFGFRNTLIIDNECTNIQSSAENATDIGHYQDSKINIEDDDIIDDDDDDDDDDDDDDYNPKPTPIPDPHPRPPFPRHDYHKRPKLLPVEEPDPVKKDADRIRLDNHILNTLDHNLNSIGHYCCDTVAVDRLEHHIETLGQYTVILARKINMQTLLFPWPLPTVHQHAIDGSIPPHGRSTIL

B1: mAb 10M2146 (human IgG1, anti-A28) (antibody, V domains shown)
VH: EVQLVQSGAEVKKPGESLKISCKGSGYSFTTHWIGWVRQMPGEGLEWLGIIYPGDSETKYSPSFQGQVTISVDKSINTAYLHWSSLKASDTAMYFCARRPKNYYDASGYYNWLDPWGQGTLVTVSS
VL: EIQMTQSPSTLSASVGDRVTITCRASQSLSTWLAWYQQKPGKAPKLLIYKASILESGVPSRFSASGSGTEFTLTISGLQPDDFATYYCQQYNSYLGAFGQGTKVEIK
B1: binds [1]; binds [2].

B2: Fab 10M2146 (Fab, V domains shown)
VH: EVQLVQSGAEVKKPGESLKISCKGSGYSFTTHWIGWVRQMPGEGLEWLGIIYPGDSETKYSPSFQGQVTISVDKSINTAYLHWSSLKASDTAMYFCARRPKNYYDASGYYNWLDPWGQGTLVTVSS
VL: EIQMTQSPSTLSASVGDRVTITCRASQSLSTWLAWYQQKPGKAPKLLIYKASILESGVPSRFSASGSGTEFTLTISGLQPDDFATYYCQQYNSYLGAFGQGTKVEIK
notes: also called 10M2146 F(ab)
B2: binds [3].

B3: Germline 1 (germline-reverted 10M2146 / 10M2154) (antibody, V domains shown)
VH: EVQLVQSGAEVKKPGESLKISCKGSGYSFTSYWIGWVRQMPGKGLEWMGIIYPGDSDTRYSPSFQGQVTISADKSISTAYLQWSSLKASDTAMYYCARRPKYYYDSSGYYNWLDPWGQGTLVTVSS
VL: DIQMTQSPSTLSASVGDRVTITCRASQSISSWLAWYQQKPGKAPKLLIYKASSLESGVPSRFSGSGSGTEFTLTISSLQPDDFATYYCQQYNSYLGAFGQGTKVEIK
B3: binds [1]; binds [2].
